Test results as given in patent US20200317758A1 (published 2020).

T1: recombinant derivative of the LukD protein (SEQ ID NO: 824) with amino-terminal polyhistidine affinity tag, … (UniProt Q2FXB1 27-327, chemically biotinylated in vitro (sites not given))
T1 chain: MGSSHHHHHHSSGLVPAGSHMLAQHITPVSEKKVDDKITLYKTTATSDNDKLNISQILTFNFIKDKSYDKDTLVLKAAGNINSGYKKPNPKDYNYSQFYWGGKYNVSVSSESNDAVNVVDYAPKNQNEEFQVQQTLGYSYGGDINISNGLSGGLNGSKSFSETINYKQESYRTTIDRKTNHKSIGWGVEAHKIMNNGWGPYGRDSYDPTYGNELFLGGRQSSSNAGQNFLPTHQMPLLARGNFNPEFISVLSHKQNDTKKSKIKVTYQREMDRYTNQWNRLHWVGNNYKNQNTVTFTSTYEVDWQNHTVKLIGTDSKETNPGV

T2: recombinant derivative of the LukE protein (SEQ ID NO: 826) with amino-terminal poly-histidine affinity tag (UniProt Q2FXB0 24-306)
T2 chain: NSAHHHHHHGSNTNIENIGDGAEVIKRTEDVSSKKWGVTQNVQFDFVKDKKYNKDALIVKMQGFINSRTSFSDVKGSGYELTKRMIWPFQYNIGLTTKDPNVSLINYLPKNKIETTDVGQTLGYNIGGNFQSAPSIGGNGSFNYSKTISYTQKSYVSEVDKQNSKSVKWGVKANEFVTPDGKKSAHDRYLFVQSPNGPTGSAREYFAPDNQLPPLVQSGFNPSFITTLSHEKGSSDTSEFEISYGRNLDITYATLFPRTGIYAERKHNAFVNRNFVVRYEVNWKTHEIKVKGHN

T3: recombinant toxoid variant of the LukAB protein (LukA E323A) with poly-histidine and streptavidin binding … (UniProt Q2FFA2 31-351; P21224 30-338)
T3 chain 1: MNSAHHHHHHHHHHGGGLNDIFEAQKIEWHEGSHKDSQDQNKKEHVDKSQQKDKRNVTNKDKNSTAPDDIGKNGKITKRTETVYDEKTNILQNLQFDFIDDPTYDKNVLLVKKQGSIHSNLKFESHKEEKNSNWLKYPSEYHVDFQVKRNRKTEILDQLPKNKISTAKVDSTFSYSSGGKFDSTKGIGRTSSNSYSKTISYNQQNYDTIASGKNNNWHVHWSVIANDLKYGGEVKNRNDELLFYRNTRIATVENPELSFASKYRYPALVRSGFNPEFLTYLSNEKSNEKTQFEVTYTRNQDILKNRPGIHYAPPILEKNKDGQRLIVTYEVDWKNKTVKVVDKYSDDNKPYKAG
T3 chain 2: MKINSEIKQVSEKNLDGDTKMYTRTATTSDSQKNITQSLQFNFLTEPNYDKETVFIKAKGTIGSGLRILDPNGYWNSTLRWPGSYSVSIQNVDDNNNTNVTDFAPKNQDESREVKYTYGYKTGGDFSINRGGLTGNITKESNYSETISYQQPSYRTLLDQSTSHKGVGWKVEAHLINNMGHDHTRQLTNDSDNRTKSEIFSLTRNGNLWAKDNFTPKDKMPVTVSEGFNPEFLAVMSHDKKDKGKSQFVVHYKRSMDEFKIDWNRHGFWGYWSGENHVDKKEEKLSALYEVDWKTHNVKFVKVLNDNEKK

B1: antibody SM1B225 (antibody, V domains shown)
VH: EVQLQQSGGGLVKPGGSLKLSCAASGFTFSSYAMSWVRQTPEKRLEWVATITGGGTYTYYLDSVKGRFTISRDNAKTSLYLQMSSLRSEDTAMYYCARHRDGNYGCFDVWGAGTTVTVSS
VL: DIVLTQSPAIMSASLGERVTMTCTASSSVSSSYLHWYQQKPGSSPKLWVYSTSNLASGVPARFSGSGSGSSYSLTISSMEPEDTATYYCHQYHRSPQTFGGGTKLEIKR
B2: anti-LukE mAb SM1B507 (antibody)
heavy: EVQLQQSGAELVKPGASVKMSCKASGYTFTDYYMDWVKQSHGKSFEWIGHVNPYNGDTRYNQKFKGKATLTVDKSSTTAYMELNSLTSEDSAVYYCARGNFFDYWGQGTTLSVSSAKTTPPSVYPLAPGSAAQTNSMVTLGCLVKGYFPEPVTVTWNSGSLSSGVHTFPAVLESDLYTLSSSVTVPSSPRPSETVTCNVAHPASSTKVDKKIVPRDCGCKPCICTVPEVSSVFIFPPKPKDVLTITLTPKVTCVVVDISKDDPEVQFSWFVDDVEVHTAQTQPREEQFNSTFRSVSELPIMHQDWLNGKEFKCRVNSAAFPAPIEKTISKTKGRPKAPQVYTIPPPKEQMAKDKVSLTCMITDFFPEDITVEWQWNGQPAENYKNTQPIMNTNGSYFVYSKLNVQKSNWEAGNTFTCSVLHEGLHNHHTEKSLSHSPGK
light: DIVMTQSPAIMSASPGEKVTIPCSASSSVSYMHWFQQKPGTSPKLWIYSTSNLASGVPGRFSGSGSGTSYSLTISRMEAEDAATYYCQQRSNYPLTFGAGTKLELKRADAAPTVSIFPPSSEQLTSGGASVVCFLNNFYPKDINVKWKIDGSERQNGVLNSWTDQDSKDSTYSMSSTLTLTKDEYERHNSYTCEATHKTSTSPIVKSFNRNEC
B3: anti-LukE mAb SM1B332 (antibody, V domains shown)
VH: QVQLKESGPGLVAPSQSLSITCTVSGLSLTSYGLSWVRQPPGKGLEWLGVIWGDGSTNYHSALISRLSISKDNSKSQVFLKLNSLQSDDTATYYCATRGDYGSYAMDYWGQGTSVTVSS
VL: QIVLTQSPAIMSASPGEKVTLTCSASSSVSSSYLFWYQQKPGSSPKLWIYSTSNLASGVPVRFSGSGFGTSYSLTISRMEAEDAASYFCHQWSSYPPTFGAGTKLELKR
B4: anti-LukAB mAb SM1B111 (antibody, V domains shown)
VH: EVQLQQSGAELVKPGASVKISCKASGYAFSSSWMNWLKQRPGKGLEWIGRIYPGDGDTNYNGKFKGKATLTADKSSSTAYMQLSSLTSEDSAVYFCARYGYDYDGEYYYAMDYWGQGTSVTVSS
VL: DIVMTQSPTTMAASPGERITITCSAHSNLISNYLHWYQQKPGFSPKLLIYRTSNLASGVPARFSGSGSGTSYSLTIGTMEAEDVATYFCQQGSSIPFTFGSGTKLEIKR
B5: anti-LukAB mAb SM1B245 (antibody, V domains shown)
VH: QVQLQQSGAELAKPGASVKMSCKSSGYTFSTYWMHWVKQRPGQGLEWIGYINPNTGYTEYNQKFKDTATLTADKSSSTAYMQLSSLTSEDSAVYYCARGGSKAFPYYAMDYWGQGTSVTVSS
VL: DIVLTQSPASLAVSLGQRATMSCRASESVDGYGNSFLHWYQQKPGQPPKLLIYRASNLESGIPARFSGTGSRTDFTLTITPVEADDVATYYCQQSNGDPFTFGSGTKLEIKR
B6: anti-LukE mAb SM1B318 (antibody, V domains shown)
VH: QVQLQQSGAELMNPGASVKISCKSTGYKFSSYWIEWVKQRPGHGLEWMGEILPGSGSTNHNEKFKGKAIFTADASSNTAYMELSSLTSEDSAVYYCARTISTATDWFAYWGQGTLVTVSA
VL: DVLMTQTPLSLPVSLGDQASISCRSSQTIVYSDGNTYLEWYLQKPGQSPKLLIYKVSNRFSGVPDRVSGSGSGTDFTLKISRVEAEDLGVYYCFQGSHVPYTFGGGTKLEIKR

Key:
[1] = target: T1, recombinant derivative of the LukD …; test: BLI; Step E (after SM1B221)
[2] = target: T2, recombinant derivative of the LukE …; test: BLI; Step E (after SM1B332), right panel
[3] = target: T2, recombinant derivative of the LukE …; test: BLI; Step E (after SM1B332), left panel
[4] = target: T2, recombinant derivative of the LukE …; test: BLI; Step C (first mAb), right panel
[5] = target: T2, recombinant derivative of the LukE …; test: BLI; Step C (first mAb), left panel
[6] = target: T3, recombinant toxoid variant of the LukAB …; test: BLI; Step E (after SM1B245)
[7] = target: T3, recombinant toxoid variant of the LukAB …; test: BLI; Step E (after SM1B249)
[8] = target: T3, recombinant toxoid variant of the LukAB …; test: BLI; Step C (first mAb)

Binder	Kd [2] [nM]	Kd [3] [nM]	Kd [6] [nM]	other results
B1	–	–	–	Kd [1]: 4.67 nM
B2	3.52	–	–	–
B3	4.9	4.9	–	Kd [4]: 1.47 nM; Kd [5]: 1.38 nM
B4	–	–	4.53	–
B5	–	–	11.5	Kd [7]: 1.31 nM; Kd [8]: 0.656 nM
B6	–	5.04	–	–
